Patent US20250270737A1, “Antibodies That Bind GLP1R” (Twist Bioscience Corporation, priority 2019, published 2025)
Where two headings read alike, the source gives them in different places.

T1: GLP2R (Homo sapiens, UniProt O95838)
T1 sequence (O95838 1-553): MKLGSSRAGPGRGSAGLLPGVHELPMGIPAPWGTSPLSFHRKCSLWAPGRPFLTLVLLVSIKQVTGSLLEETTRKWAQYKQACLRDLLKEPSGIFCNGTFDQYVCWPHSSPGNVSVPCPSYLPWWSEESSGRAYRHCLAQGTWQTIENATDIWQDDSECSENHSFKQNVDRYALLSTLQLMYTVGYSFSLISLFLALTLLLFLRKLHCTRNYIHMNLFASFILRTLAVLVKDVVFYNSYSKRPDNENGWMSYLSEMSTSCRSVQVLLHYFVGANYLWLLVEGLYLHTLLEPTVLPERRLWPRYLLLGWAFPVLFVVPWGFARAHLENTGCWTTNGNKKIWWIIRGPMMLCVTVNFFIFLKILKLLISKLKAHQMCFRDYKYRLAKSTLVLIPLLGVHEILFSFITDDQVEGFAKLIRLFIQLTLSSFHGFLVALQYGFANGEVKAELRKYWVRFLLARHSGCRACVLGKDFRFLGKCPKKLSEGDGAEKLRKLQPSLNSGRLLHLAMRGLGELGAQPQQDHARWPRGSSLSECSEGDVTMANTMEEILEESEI

T2: mouse GLP1R (Mus musculus, UniProt O35659)
T2 sequence (O35659 22-463): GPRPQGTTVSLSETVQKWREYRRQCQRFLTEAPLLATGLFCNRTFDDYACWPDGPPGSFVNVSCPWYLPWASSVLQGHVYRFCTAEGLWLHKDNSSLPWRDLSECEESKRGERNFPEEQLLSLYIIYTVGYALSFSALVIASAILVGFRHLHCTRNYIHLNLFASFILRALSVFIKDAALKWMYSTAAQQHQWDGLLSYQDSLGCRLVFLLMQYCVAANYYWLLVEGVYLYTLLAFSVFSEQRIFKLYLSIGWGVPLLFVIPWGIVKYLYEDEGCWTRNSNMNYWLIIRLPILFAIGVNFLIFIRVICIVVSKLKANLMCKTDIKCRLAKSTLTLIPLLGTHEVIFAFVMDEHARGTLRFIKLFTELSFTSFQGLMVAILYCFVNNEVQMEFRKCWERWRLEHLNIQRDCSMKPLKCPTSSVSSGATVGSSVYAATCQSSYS

B1: GLP1R-3: GLP1R antagonist IgG, CDR-H3 SEQ ID NO 2279, heavy chain SEQ ID NO 2320 (antibody)
heavy: QVQLVESGGGVVQPGRSLRLSCAASGFTFSSYGMHWVRQAPGKGLEWVSFISYDESNKYYADSVKGRFTISRDNSKNTLYLQMNSLRAEDTAVYYCAKHMSMQEGAVTGEGQAAKEFIAWLVKGRVRADLVGDAFDVWGQGTLVTVSSASTKGPSVFPLAPCSRSTSESTAALGCLVKDYFPEPVTVSWNSGALTSGVHTFPAVLQSSGLYSLSSVVTVPSSNFGTQTYTCNVDHKPSNTKVDKTVERKCCVECPPCPAPPVAGPSVFLFPPKPKDTLMISRTPEVTCVVVDVSHEDPEVQFNWYVDGVEVHNAKTKPREEQFNSTFRVVSVLTVVHQDWLNGKEYKCKVSNKGLPAPIEKTISKTKGQPREPQVYTLPPSREEMTKNQVSLTCLVKGFYPSDIAVEWESNGQPENNYKTTPPMLDSDGSFFLYSKLTVDKSRWQQGNVFSCSVMHEALHNHYTQKSLSLSPGK
light: QSVLTQPPSVSAAPGQKVTISCSGSSSNIADNYVSWYQQLPGTAPKLLIYDNNKRPSGIPDRFSGSKSGTSATLGITGLQTGDEADYYCGTWDNYLGAGVFGGGTKLTVLGQPKAAPSVTLFPPSSEELQANKATLVCLISDFYPGAVTVAWKADSSPVKAGVETTTPSKQSNNKYAASSYLSLTPEQWKSHRSYSCQVTHEGSTVEKTVAPTECS
B2: GLP1R-43-77: GLP1R VHH Fc binder variant from the VHH library for GLP1R (protein)
VHH: EVQLVESGGGLVQAGGSLRLSCAASGNTYSYKVMGWFRQAPGKEREFVGIIIRNGDTTYYADSVKGRFTISADNAKNTVYLQMNSLKPEDTAVYYCAASPKYMTAYERSYDWGQGTQVTVSS
modifications: Fc

Legend:
GLP1R [1] = target: T3, GLP1R (Homo sapiens, UniProt P43220); experiment: cAMP assay, allosteric/antagonist effects on Exendin-4 peptide induced cAMP activity (Example 10); assay type: cell-based
T3 sequence (P43220 24-463): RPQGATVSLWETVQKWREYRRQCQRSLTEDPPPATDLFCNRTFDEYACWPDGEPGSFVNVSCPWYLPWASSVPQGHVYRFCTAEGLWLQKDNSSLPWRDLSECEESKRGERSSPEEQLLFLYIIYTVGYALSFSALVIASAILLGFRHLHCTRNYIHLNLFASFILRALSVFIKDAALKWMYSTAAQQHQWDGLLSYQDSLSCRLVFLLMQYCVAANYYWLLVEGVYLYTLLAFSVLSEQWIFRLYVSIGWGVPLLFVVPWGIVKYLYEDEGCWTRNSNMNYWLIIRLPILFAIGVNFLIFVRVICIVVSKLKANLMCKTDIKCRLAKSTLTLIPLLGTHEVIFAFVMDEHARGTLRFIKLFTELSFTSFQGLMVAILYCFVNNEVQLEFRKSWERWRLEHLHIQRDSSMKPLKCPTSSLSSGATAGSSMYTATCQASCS

GLP2R = target: T1, GLP2R; experiment: Specificity of GLP1R versus GLP2R binding; details: data not shown
macaca GLP1R = experiment: Binding on macaca GLP1R; details: IgG at 100 nM (GLP1R-59-243 at 50 nM); data not shown
Procedure: (§1) Binding of GLP1R-3, GLP1R-59-242, and GLPTR-43-8 on mouse, macaca, and human GLP1R was determined. […] Binding of GLP1R-59-2, GLP1R-59-241, and GLPTR-59-243 on mouse, macaca, and human GLP1R was determined.

[2] = Thermal ramp stability (Tm and Tagg), UNcle platform; assay type: physicochemical
Text: The GLP1R IgGs were characterized for thermal ramp stability (Tm and Tagg). The UNcle platform was used to characterize the IgGs and the data is seen in Table 21.

mouse GLP1R = target: T2, mouse GLP1R; experiment: Binding on mouse GLP1R; details: IgG at 100 nM (GLP1R-59-243 at 50 nM); data not shown
Procedure: as §1

C57BL/6NHsd Mice = experiment: Glucose Tolerance Test (GTT) in wild-type mice; assay type: in vivo, mouse; details: control mice exhibited a decrease; FIG. 25D
Procedure: 15 C57BL/6NHsd Mice were used and subjected to a Glucose Tolerance Test (GTT). The in vivo GTT test was performed on three groups of mice with 5 mice per group. […] Blood glucose measurements were recorded for each mouse at 15, 30, 60, 120, and 180 minutes after dextrose injection. […] A third group of mice were the control mice and were not treated. Data is seen for GLP1R-59-2 (agonist), GLP1R-3 (antagonist), and control in FIGS. 25A-25D.

C57BL/6J DIO mice = experiment: Oral glucose tolerance test in mouse model of diet induced obesity; assay type: in vivo; details: HFD, 10 mg/kg SC, 2 g/kg oral glucose 60 minutes later, FIGS. 24C-24D
Procedure: The objective of this study was to evaluate the acute effects of a chimeric antibody GLP1R agonist and antagonist on glycemic control in a mouse model of diet induced obesity in C57BL/6J DIO mice. The test articles are seen below in Table 25.
For each test article, 7 different test article groups were generated as summarized in the following Table 26 with 8 animals per group.
On Day 3 (all animals) and Day 1 (Group 1-7), a non-fasting blood glucose was determined by tail snip. Approximately 5-10 μL of blood was collected. The second drop of blood from the animal was placed on a blood glucose test strip and analyzed using a hand-held glucometer (Abbott Alpha Trak).
After a non-fasting blood glucose measurement was made on the day of the procedure, the animals were weighed, tails marked, and the animals placed in clean cages without food. The animals were fasted for 4 hours and a fasting blood glucose measurement was determined.
The oral glucose tolerance test (OGTT) was administered to each animal 60 minutes later. The animals were dosed via oral gavage with 2 g/kg glucose (10 mL/kg). Blood glucose was determined via tail snip with the second drop of blood from the animal placed on a hand-held glucometer (Abbott Alpha Trak) at the following times relative to the glucose dose: 0 (just prior to glucose dose), 15, 30, 60, 90, and 120 minutes. […]

GLP1R [3] = target: T3, GLP1R; experiment: Binding on human GLP1R; details: IgG at 100 nM (GLP1R-59-243 at 50 nM); data not shown
Procedure: as §1

[4] = test system: human pancreatic precursor cells expressing endogenous GLP1R; experiment: Binding to human pancreatic precursor cells expressing endogenous GLP1R
Procedure: as §1

GLP1R [5] = target: T3, GLP1R; experiment: cAMP assay, allosteric effects on GLP1-7-36 peptide induced cAMP activity (Example 10); assay type: cell-based; details: FIGS. 10B-10J
Procedure: Cell binding was determined for the GLP1R variants. […] GLP1R-3, GLP1R-8, GLP1R-26, GLP1R-56, GLP1R-58 and GLP1R-10 were then analyzed for allosteric effects on GLP1-7-36 peptide in a cAMP assay. FIGS. […] show graphs of the GLP1R variants on inhibition of GLP1-7-36 peptide induced cAMP activity.

GLP1R [6] = target: T3, GLP1R
Procedure: All GLP1R scFv clones, as well as pGPCR-GLP1R-43 and pGPCR-GLP1R-44, were assayed for their potential effects on GLP1R signaling by performing cAMP assays (Eurofins DiscoverX Corporation). These assays involve CHO cells that were engineered to overexpress naturally Gαs-coupled wildtype GLP1R and were designed to detect changes in intracellular cAMP levels in response to agonist stimulation of the receptor. The technology involved in detecting cAMP levels was a no wash gain-of-signal competitive immunoassay based on Enzyme Fragment Complementation technology and produced a luminescent signal that was directly proportional to the amount of cAMP in the cells. Experiments were designed to determine agonist or allosteric activity of the IgGs.

GLP1R [7] = target: T3, GLP1R; experiment: VHH-Fc FACS binding on CHO-GLP1R cells; details: Sample E10.fcs/CHO-GLP1R
Procedure: A VHH library for GLP1R was developed similar to methods described in Example 14. Briefly, stable cell lines expressing GLP1R were generated, and target expression was confirmed by FACS. Cells expressing >80% of the target were then used for cell-based selections. Five rounds of cell-based selections were carried out against cells stably overexpressing the target of interest. 10^8 cells were used for each round of selection. Before selection on target expressing cells, phage from each round was first depleted on 10^8 CHO background cells. Stringency of selections was increased by increasing the number of washes in subsequent rounds of selections. The […] using trypsin, and the phage was amplified for the next round of panning. A total of 1000 clones from round 4 and round 5 are sequenced by NGS to identify unique clones for reformatting as VHH-Fc.
The data for variant GLP1R-43-77 is seen in FIGS. 22A-22B and Tables 23B-24.

CHO-parent = experiment: VHH-Fc FACS binding on CHO-parent cells; details: Sample E10.fcs/CHO-parent

Row | Molecule | EC50 (GLP1R [1]; EC50 of Exendin-4 induced cAMP in the presence of the GLP1R variant) [nM] | fold-diff (GLP1R [1]; fold difference of Exendin-4 EC50 with variant versus Exendin-4 alone) | specificity of GLP1R versus GLP2R binding (GLP2R) | binding on macaca GLP1R (macaca GLP1R) | Average Tagg 266 [2] [°C] | Average Tm2 [2] [°C] | Average Tml [2] [°C] | binding on mouse GLP1R (mouse GLP1R) | change of glucose in a 6 hour fast, pre-dosed animals (C57BL/6NHsd Mice) | glucose levels after glucose administration (OGTT) (C57BL/6J DIO mice) | binding on human GLP1R (GLP1R [3]) | binding to human pancreatic precursor cells expressing endogenous GLP1R [4] | allosteric inhibition of GLP1-7-36 peptide induced cAMP activity (GLP1R [5]) | EC50 (GLP1R [6]; EC50 of GLP1 (7-36) cAMP response with GLP1R IgG (+100 nM)) [nM] | fold difference of EC50 (GLP1R [6]; EC50 with 100 nM IgG versus no antibody (Table 23)) [fold] | inhibition of GLP1:GLP1R signaling (GLP1R [6]; GLP1 (7-36) titration versus no antibody, FIG. 24A) | inhibition at higher concentrations (GLP1R [6]; following stimulation with 0.05 nM GLP1 (7-36), FIG. 24B) | Median: RL1-A (GLP1R [7]) | Median: RL1-A (CHO-parent)
1 | B1 | 0.63 | 5.4 | specific for GLP1R over GLP2R | found to bind | 68.4 | 73.5 | 66.7 | found to bind | did not show decreased glucose | sustained high glucose levels | found to bind | found to bound | allosteric inhibition | 1.31 | 2.2 | inhibits GLP1:GLP1R signaling | complete inhibition | – | –
2 | B2 | – | – | – | – | – | – | – | – | – | – | – | – | – | – | – | – | – | 23439 | 237
